The target of the data set is T1, SB transposase N123 (N-terminal DNA-binding domain, residues 1-123) (synthetic (salmonid consensus)).
T1 chain: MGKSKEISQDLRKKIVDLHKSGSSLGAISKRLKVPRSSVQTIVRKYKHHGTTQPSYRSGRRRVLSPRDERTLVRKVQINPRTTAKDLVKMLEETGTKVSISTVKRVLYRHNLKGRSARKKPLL
In words: footprint; DNase I, 30-bp protected region within left IR probe. The conditions noted are these: tags: C-terminal His tag (pET21a). The procedure: In addition to the NLS function, N123 also contains the specific DNA-binding domain of SB, as tested in a mobility-shift assay (FIG. 3B). A 300 bp EcoRI/HindIII fragment of pT comprising the left inverted repeat of the element was end-labeled using [α³²P]dCTP and Klenow. Nucleoprotein complexes were formed in 20 mM HEPES (pH 7.5), 0.1 mM EDTA, 0.1 mg/ml BSA, 150 mM NaCl, 1 mM DTT in a total volume of 10 μl. Reactions contained 100 pg labeled probe, 2 μg poly[dI][dC] and 1.5 μl N123. After 15 min incubation on ice, 5 μl of loading dye containing 50% glycerol and bromophenol blue was added and the samples loaded onto a 5% polyacrylamide gel (Ausubel). DNaseI footprinting was done using a kit from BRL according to the recommendations of the manufacturer. […]
The number of the deoxyribonucleoprotein complexes detected by the mobility-shift assay at increasingly higher N123 concentrations indicated two protein molecules bound per IR (FIG. 3B, right panel), consistent with either two binding sites for transposase within the IR or a transposase dimer bound to a single site. Transposase-binding sites were further analyzed and mapped in a DNasel footprinting experiment. […]

This is an account of results in patent publication US20030154500, “Nucleic acid transfer vector for the introduction of nucleic acid into the DNA of a cell” (Regents of the University of Minnesota, published 2003).

B1: salmonid internal transposase-binding site (dsDNA)
DNA 1: CCAGTGGGTCAGAAGTTTACATACACTAAG
DNA 2: CTTAGTGTATGTAAACTTCTGACCCACTGG
For the molecule B1, the binding result is “binds”.

B2: salmonid outer transposase-binding site (dsDNA)
DNA 1: GTTGAAGTCGGAAGTTTACATACACTTAGG
DNA 2: CCTAAGTGTATGTAAACTTCCGACTTCAAC
Take B2: the binding result is “binds”.
